According to the supplement of paper PMC11865577:

How the values were obtained:
Assay in all cases: pull-down binding Z-score (relative to library population); higher = stronger binding
[1] = test system: TO-N3 (biotin conjugate); conditions: RNA library: Library-2
Outline: (§1)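 Streptavidin beads bearing 100 pmol of a biotin-conjugated small molecule were incubated for 60 min at 25 °C with 1 μg of heat-folded, Cy5- or Cy3-end-labelled RNA library in phosphate/NaCl/KCl buffer. Hot SDS eluted the RNA that stayed bound after three washes, and this RNA was hybridised for 20 h at 55.5 °C to a DNA barcode microarray. Binding was expressed as a Z-score against the library mean and standard deviation, after subtraction of a beads-only signal and trimmed averaging of barcoded replicate probes.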

[2] = test system: TO-3-N3-2 (biotin conjugate); conditions: RNA library: Library-2
Outline: as §1

[3] = test system: TO-3-N3 (biotin conjugate); conditions: RNA library: Library-2
Outline: as §1

[4] = test system: TO-N3-2 (biotin conjugate); conditions: RNA library: Library-2
Outline: as §1

[5] = test system: G-clamp-N3 (biotin conjugate); conditions: RNA library: Library-1 (pre-miRNA loops + repeats)
Outline: as §1

Row | Sequence | pull-down binding Z-score [1] | pull-down binding Z-score [2] | pull-down binding Z-score [3] | pull-down binding Z-score [4] | pull-down binding Z-score [5]
1 | GUUUUACUAUGAUGAGGUGUGCCAUCCACCCCAUCAUAGUAAAC [hsa-mir-606] | -0.422 | -0.139 | -0.262 | -0.698 | -0.172
2 | GUUUUUUAAGAGGAAGGGAGACCUAAGCUAGCA [hsa-mir-4481] | 0.507 | 0.475 | 0.205 | 0.747 | 0.269
3 | UAAAGAGUAUUCAACAUC [hsa-mir-1245b] | -0.49 | 0.0553 | -0.609 | -0.373 | -0.935
4 | UAAGAGUAAUAGCUCUCUAGGUUAUUAUGAAUA [hsa-mir-5692c-1] | -0.449 | 0.109 | -0.283 | -0.712 | -0.762
5 | UAAGUGUCCUAGCACUUA [hsa-mir-374b] | -0.0395 | -0.524 | 0.251 | -0.647 | 0.214
6 | UAAGUGUUAUAGCACUUA [hsa-mir-374a] | -1.38 | -0.541 | -0.901 | -1.79 | -0.753
7 | UAAGUUGUGAUCAUACCA [hsa-mir-1273g] | -0.24 | -0.0944 | -0.424 | 0.165 | -1.51
8 | UAAUAACUGACAAACAGACAAUUG [hsa-mir-4774] | -0.376 | -0.145 | -0.343 | -0.303 | -0.873
9 | UAAUAGCAAUCCUUAAAUGCCAUUA [hsa-mir-4477b] | -1.24 | -0.0844 | -0.947 | -1.16 | -0.537
10 | UAAUAUGCACUAUAAAUAUAUUG [hsa-mir-450a-1] | -1.16 | -0.431 | -0.774 | -1.33 | -0.725
11 | UAAUAUGUAAUAUAAAUGUAUUG [hsa-mir-450a-2] | -0.167 | -0.134 | 0.202 | -0.926 | -0.938
12 | UAAUCACAGGCCACAUUUCUGAAUA [hsa-mir-1295b] | -0.716 | -0.391 | -0.745 | -0.437 | -1.08
13 | UAAUGAUUGGAGUCAUUUUCAGAGCAUUA [hsa-mir-3202-1] | -0.407 | -0.262 | -0.304 | -0.537 | 1.44
14 | UAAUGCUCUGAAAAUGACUCCAAUCAUUA [hsa-mir-3202-2] | -0.741 | -0.069 | -0.685 | -0.457 | -1.64
15 | UACAAUUUUUUUUUUUUUAAAUUUUA [hsa-mir-1303] | -0.893 | 0.111 | -0.51 | -1.17 | 0.8
16 | UACAUAGUUCAUGCUGAGGCCGGGAUUUCAUGCAGAAAACUGGUUGCAAAAGGUGCUGAAG [hsa-mir-6085] | 0.573 | 0.378 | -0.189 | 1.13 | -0.725
17 | UACUAACAGCACUGGAGGGUGUA [hsa-mir-142] | 0.114 | 0.107 | -0.0529 | 0.533 | 2.68
18 | UAGACAAUGGUUUCAUCAUUUCGUCUG [hsa-mir-4427] | -0.379 | -0.103 | -0.317 | -0.052 | -0.055
19 | UAGAGGGUAAAAUUAAUAACCUUCUA [hsa-mir-628] | -0.152 | 0.114 | 0.214 | -0.888 | 0.0533

Row | Sequence | pull-down binding Z-score [1] | pull-down binding Z-score [2] | pull-down binding Z-score [3] | pull-down binding Z-score [4] | pull-down binding Z-score [5]
20 | UAGAGUAGGAGAGCCCACUGA [hsa-mir-6846] | 1.28 | 0.147 | 0.712 | 1.21 | 0.203
21 | UAGAUACUCAGGAGGGUGAGUAUCUA [hsa-mir-5689] | -0.797 | -0.33 | -0.511 | -0.726 | 1.64
22 | UAGAUGAAUAAAUGAAUGACUCAUCA [hsa-mir-545] | -0.414 | 0.146 | -0.346 | -0.21 | -0.383
23 | UAGAUGUUAUAAAAAUAUAUAUCUG [hsa-mir-4680] | -1.08 | -0.189 | -0.708 | -1.07 | 0.187
24 | UAGGAGCUGUGCCUCCUGGCCUAUUCCUGUUCGUG [hsa-mir-8056] | 0.0941 | -0.167 | -0.344 | 0.623 | 0.294
25 | UAGGAUUUGGGAGUUAUACUA [hsa-mir-5690] | -0.492 | -0.0337 | -0.528 | -0.349 | 0.541
26 | UAGGCCCACUGCUCAGUGGAGC [hsa-mir-7847] | 0.139 | -0.0119 | -0.238 | 0.845 | 0.533
27 | UAGGCUGUGCAGGUCCCAAUGGGCCUA [hsa-mir-26a-1] | 0.151 | -0.0454 | 0.169 | 0.528 | 1.56
28 | UAGGCUGUUUCCAUCUGUGAGGCCUA [hsa-mir-26a-2] | -0.233 | -0.375 | -0.164 | -0.00853 | -0.141
29 | UAGGGCGCGGAGGGCGGACCGGGAA [hsa-mir-638] | 5.19 | 6.57 | 5.36 | 4.4 | 0.973
30 | UAGGGCUGGAUGGUAGGGCCCA [hsa-mir-6890] | 0.642 | 0.343 | 0.343 | 1.13 | 2.15
31 | UAGGUGGUCGAAGUCAUCCACA [hsa-mir-7153] | 0.131 | 0.264 | -0.108 | 0.498 | -0.765
32 | UAGGUUGUGUGCUGUCCAGCCUG [hsa-mir-26b] | -0.388 | -0.429 | -0.484 | 0.271 | -0.497
33 | UAGGUUGUUAUUUAAUCCAACU [hsa-mir-190a] | -0.267 | -0.00409 | -0.24 | -0.661 | -1
34 | UAGUACAGGUGAGAUUGUACUG [hsa-mir-3920] | -0.888 | -0.323 | -0.707 | -0.564 | 0.5
35 | UAGUCUAAUAGGGACUA [hsa-mir-5681b] | -0.292 | -0.0587 | 0.02 | -1.21 | 2.76
36 | UAGUGGAAAGAGCACUG [hsa-mir-378b] | -0.347 | -0.158 | -0.39 | -0.274 | 1.15
37 | UAUAACUUGAAGAAUUCAAAUAGUCAUG [hsa-mir-3146] | -1.06 | -0.34 | -0.804 | -0.75 | -0.817
